For orientation: Kd means a measure of binding affinity in units of concentration.

For test [1], the target named is T1, PD-1 (programmed cell death protein 1), on cells (UniProt Q15116 25-288, limits assumed). The experiment in a line: cell-based or functional assay.
For test [2], the target named is T2, PD-1 Fc fusion protein (UniProt Q15116 25-167, limits assumed).
T2 construct: Antigen immobilised on the CM5 chip in all PD-1 SPR assays; also called PD-1 fused to human Fc region; PD-1-Fc antigen; not shown: human Fc region
T2 sequence (Q15116 25-167 limits assumed): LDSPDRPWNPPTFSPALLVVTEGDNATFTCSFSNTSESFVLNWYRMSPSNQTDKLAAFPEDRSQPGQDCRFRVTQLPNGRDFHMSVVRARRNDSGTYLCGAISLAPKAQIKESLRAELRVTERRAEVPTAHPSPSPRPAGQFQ
The experiment in a line: SPR (Biacore 3000), PD-1 Fc immobilised on CM5 chip, fusion protein injected. The protocol:
(§1) Surface plasma resonance (SPR) analysis was performed using Biacore3000, CM5 chip, an amine-coupling kit, 10×HBS-P running buffer and Glycine for regeneration (GE Healthcare). […] Dissociation was allowed to proceed followed by a pulse of 10 mM Glycine (pH 1.5) for regeneration of the chip surface.
A general note: In SPR one partner is held on a chip, and binding of the other changes the refractive index at the surface.

The target in test [3] is T3, TGF-β1 (UniProt P01137 279-390). The experiment in a line: cell-based or functional assay.
T3 sequence (P01137 279-390 limits assumed): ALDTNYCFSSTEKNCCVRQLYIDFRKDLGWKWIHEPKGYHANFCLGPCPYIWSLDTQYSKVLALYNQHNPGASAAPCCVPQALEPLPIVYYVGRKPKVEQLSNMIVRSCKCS
Test [4] deals with T4, TGF-β3 (UniProt P10600 301-412).
T4 sequence (looked up): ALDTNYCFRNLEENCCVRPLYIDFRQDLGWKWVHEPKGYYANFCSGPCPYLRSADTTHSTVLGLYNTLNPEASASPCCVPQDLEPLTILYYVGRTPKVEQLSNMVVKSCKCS
The experiment in a line: cell-based or functional assay.

In test [5] the target is T1, PD-1 (programmed cell death protein 1), …. Put plainly: cell-based or functional assay. The source holds these as a separate data set.
The target in test [6] is T2, PD-1 Fc fusion protein. The experiment in a line: SPR (Biacore 3000), recombinant PD-1 Fc immobilised on CM5 chip, fusion protein injected. How it is done: Surface plasma resonance (SPR) analysis was performed using Biacore3000, CM5 chip, an amine-coupling kit, 10×HBS-P running buffer and Glycine for. […] Dissociation was allowed to proceed followed by regeneration of the chip surface.

The target in test [7] is T3, TGF-β1. Put plainly: SPR (Biacore 3000), fusion protein immobilised on CM5 chip, TGF-β1 injected. How it is done:
as §1

For test [8], the target named is T4, TGF-β3. Put plainly: SPR (Biacore 3000), fusion protein immobilised on CM5 chip, TGF-β3 injected. How it is done:
as §1

Another test has as its target T5, TGF-β2 (UniProt P61812 303-414).
T5 sequence (looked up): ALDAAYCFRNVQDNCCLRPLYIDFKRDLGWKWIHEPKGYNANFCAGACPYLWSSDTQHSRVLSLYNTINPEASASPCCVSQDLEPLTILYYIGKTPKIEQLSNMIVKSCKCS
Put plainly: SPR (Biacore 3000), fusion protein immobilised on CM5 chip, TGF-β2 injected. How it is done: as §1

T1 sequence (Q15116 25-288 limits assumed): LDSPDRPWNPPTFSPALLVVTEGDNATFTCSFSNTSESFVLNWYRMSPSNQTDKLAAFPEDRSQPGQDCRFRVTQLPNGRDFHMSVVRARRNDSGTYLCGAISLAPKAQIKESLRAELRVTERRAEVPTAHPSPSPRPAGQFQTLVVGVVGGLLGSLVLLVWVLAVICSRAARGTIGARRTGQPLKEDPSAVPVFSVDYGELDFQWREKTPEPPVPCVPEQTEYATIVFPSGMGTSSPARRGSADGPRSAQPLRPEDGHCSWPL

B1: Anti-PD1(VH6-VL5) IgG1-TGFβRII (antibody)
VH: QVQLVESGGGVVQPGRSLRLDCKASGITFSNSGMHWVRQAPGKGLEWVAVIWYDGSKRYYADSVKGRFTISRDNSKNTLFLQMNSLRAEDTAVYYCATNDDYWGQGTLVTVSS
VL: EIVLTQSPATLSLSPGERATLSCRASQSVSSYLAWYQQKPGQAPRLLIYDASNRATGIPARFSGSGSGTDFTLTISSLEPEDFAVYYCQQSSNWPRTFGQGTKVEIK
chain: GGGGSGGGGSIPPHVQKSVNNDMIVTDNNGAVKFPQLCKFCDVRFSTCDNQKSCMSNCSITSICEKPQEVCVAVWRKNDENITLETVCHDPKLPYHDFILEDAASPKCIMKEKKKPGETFFMCSCSSDECNDNIIFSEEYNTSNPD
notes: not shown: light-chain constant region (not tied to the IgG1 format); copies: 2 + 2 + 2
For the molecule B1, the “IC50; PD-1/PD-L1 blockade bioassay (PD-1 effector cells with PD-L1 aAPC/CHO-K1 cells, luciferase RLU)” value in test [1] was 9500 pM. The molecule also registered a Kd with PD-1 Fc fusion protein [2] of 7.64 pM. Also, the “IC50; neutralisation of TGF-β1 signalling, HEK-Blue TGF-β reporter cells (SEAP, absorbance 620 nM)” value with TGF-β1 [3] amounted to 12.7 pM. Besides, the “IC50; neutralisation of TGF-β3 signalling, HEK-Blue TGF-β reporter cells (SEAP, absorbance 620 nM)” value with TGF-β3 [4] was found to be 5.3 pM.

B2: Anti-PD1 (VH6-VL5) IgG1-ADA2 (antibody)
heavy (part 1 of 2): QVQLVESGGGVVQPGRSLRLDCKASGITFSNSGMHWVRQAPGKGLEWVAVIWYDGSKRYYADSVKGRFTISRDNSKNTLFLQMNSLRAEDTAVYYCATNDDYWGQGTLVTVSS
heavy (part 2 of 2): GGGGSGGGGSSIDETRAHLLLKEKMMRLGGRLVLNTKEELANERLMTLKIAEMKEAMRTLIFPPSMHFFQAKHLIERSQVFNILRMMPKGAALHLHDIGIVTMDWLVRNVTYRPHCHICFTPRGIMQFRFAHPTPRPSEKCSKWILLEDYRKRVQNVTEFDDSLLRNFTLVTQHPEVIYTNQNVVWSKFETIFFTISGLIHYAPVFRDYVFRSMQEFYEDNVLYMEIRARLLPVYELSGEHHDEEWSVKTYQEVAQKFVETHPEFIGIKIIYSDHRSKDVAVIAESIRMAMGLRIKFPTVVAGFDLVGHEDTGHSLHDYKEALMIPAKDGVKLPYFFHAGETDWQGTSIDRNILDALMLNTTRIGHGFALSKHPAVRTYSWKKDIPIEVCPISNQVLKLVSDLRNHPVATLMATGHPMVISSDDPAMFGAKGLSYDFYEVFMGIGGMKADLRTLKQLAMNSIKYSTLLESEKNTFMEIWKKRWDKFIADVATK
light: EIVLTQSPATLSLSPGERATLSCRASQSVSSYLAWYQQKPGQAPRLLIYDASNRATGIPARFSGSGSGTDFTLTISSLEPEDFAVYYCQQSSNWPRTFGQGTKVEIK
notes: also called anti-PD1 (VH6/VL5) hIgG1-ADA2; not shown: IgG1 (hIgG1) heavy chain constant region; light chain constant region
In the case of B2, the “EC50 (read off the curve); PD-1/PD-L1 blockade reporter bioassay (luciferase RLU)” value in test [5] is roughly 0.6 µg/mL. Moreover, the Kd in the test with PD-1 Fc fusion protein [6] was determined as 0.309 pM.

B3: Anti-PD1(VH6-VL5) IgG4-TGFβRII (antibody)
heavy: QVQLVESGGGVVQPGRSLRLDCKASGITFSNSGMHWVRQAPGKGLEWVAVIWYDGSKRYYADSVKGRFTISRDNSKNTLFLQMNSLRAEDTAVYYCATNDDYWGQGTLVTVSSASTKGPSVFPLAPCSRSTSESTAALGCLVKDYFPEPVTVSWNSGALTSGVHTFPAVLQSSGLYSLSSVVTVPSSSLGTKTYTCNVDHKPSNTKVDKRVESKYGPPCPSCPAPEFLGGPSVFLFPPKPKDTLMISRTPEVTCVVVDVSQEDPEVQFNWYVDGVEVHNAKTKPREEQFNSTYRVVSVLTVLHQDWLNGKEYKCKVSNKGLPSSIEKTISKAKGQPREPQVYTLPPSQEEMTKNQVSLTCLVKGFYPSDIAVEWESNGQPENNYKTTPPVLDSDGSFFLYSRLTVDKSRWQEGNVFSCSVMHEALHNHYTQKSLSLSPGKGGGGSGGGGSIPPHVQKSVNNDMIVTDNNGAVKFPQLCKFCDVRFSTCDNQKSCMSNCSITSICEKPQEVCVAVWRKNDENITLETVCHDPKLPYHDFILEDAASPKCIMKEKKKPGETFFMCSCSSDECNDNIIFSEEYNTSNPD
light: not shown
notes: IgG4 antibody with TGFβRII ECD fused to the C-terminus of the heavy chain; also called anti-PD-1 IgG4 antibody (VH6-VL5)-TGFβRII fusion protein; VH6-IgG4(wt)-linker-ECD with VL5
As to B3, the Kd is 5.22 pM with TGF-β1 [7], 2.19 pM with TGF-β3 [8] and 859 pM with TGF-β2. Further, the “IC50; neutralisation of TGF-β1 signalling, HEK-Blue TGF-β reporter cells (SEAP, absorbance 620 nM)” value with TGF-β1 [3] was 14.9 pM. Further, the “IC50; neutralisation of TGF-β3 signalling, HEK-Blue TGF-β reporter cells (SEAP, absorbance 620 nM)” value with TGF-β3 [4] amounted to 6.7 pM.
